Residue numbers refer to the chain shown, from its start.

The record followed here is patent publication US20230228751 (APTAMER DIAGNOSTICS LIMITED, published 2023).

Common to all, as to test: BLI
For orientation: BLI is a label-free optical method that tracks binding on a fibre tip over time.

Data set [1] has as its target SARS-CoV spike S1 subunit (SARS-CoV, UniProt P59594 SEQ:14-667). The following applies: tags: SinoBiological.
The target in data set [2] is SARS-CoV-2 spike RBD (SARS-CoV-2, UniProt P0DTC2 SEQ:1-223). The conditions noted are these: tags: His tag, SinoBiological 40592-V08H.
Data set [3] deals with T1, SARS-CoV-2 spike S1 subunit (SARS-CoV-2, UniProt P0DTC2 SEQ:1-670). The following applies: tags: His tag, SinoBiological 40591-V08B1; label: 5'-biotin.
For data set [4], the target named is SARS-CoV-2 spike S2 subunit (SARS-CoV-2, UniProt P0DTC2 SEQ:1-528). The following applies: label: 5'-biotin.
Data set [5] addresses T1, SARS-CoV-2 spike S1 subunit. The following applies: tags: His tag, SinoBiological 40591-V08B1; label: 5'-biotin. As to the method:
The affinity of four chosen aptamers (aptamer S1_A3-A (SEQ ID NO: 4); aptamer S1_A6 (SEQ ID NO: 8); aptamer S1_A8 (SEQ ID NO: 9); aptamer S1_F2 (SEQ ID NO: 43)) was determined using the BLI assay according to the protocol described above. The biotinylated aptamers were immobilised onto streptavidin biosensor probes (as described above) and then interaction monitored with a concentration series of SARS-CoV-2 Spike protein S1 (250 nM, 125 nM, 62.5 nM, 31.25 nM, 15.63 nM, 7.81 nM, 0 nM diluted in 1× ‘high salt’ aptamer selection buffer). KD values were calculated using the ForteBio software (ForteBio Data Analysis 8.0,), using a 2:1 binding model (FIGS. 6 & 7).
The source holds these as a separate data set.

B1: S1_D2 (ssDNA)
DNA: CCAGTGTAGACTACTCAATGCTAGGTCCGTGGGATGGGTGGGGGGGAGGACCAGCCAGCGAGTACTATCCACAGGTCAACC
For B1, the binding result in data set [1] (label: 5' biotin) is listed as “no binding”; in data set [2] (label: 5' biotin), “binds”; in data set [3], “binds”.

B2: S1_D1 (ssDNA)
DNA: CCAGTGTAGACTACTCAATGCATTCCTTTTGCTACCTATATTCCGTCTCCAGCATAATCCCGTACTATCCACAGGTCAACC
As for B2, the figures for the binding result in data set [1] (label: 5' biotin), in data set [2] (label: 5' biotin) and in data set [3] were “no binding”, “binds” and “binds”, respectively.

B3: S1_F3-A (ssDNA)
DNA: CCAGTGTAGACTACTCAATGCGGTATGAATATGATCGGCCCTATCCCTTCAGCTATTCCGGGTACTATCCACAGGTCAACC
With B3, the binding result was “no binding” in data set [1] (label: 5' biotin), “binds” in data set [2] (label: 5' biotin) and “binds” in data set [3].

B4: S1_D8 (ssDNA)
DNA: CAGTGTAAGACTACTCAATGCCGTGGACTGGTCGGGTTTGGATTCGGCAGATGAATCAGTAGTACTATCCACAGGTCAACC
For B4, the binding result is listed as “no binding” in data set [1] (label: 5' biotin), “binds” in data set [2] (label: 5' biotin) and “binds” in data set [3].

B5: S1_C3-B (ssDNA)
DNA: CCAGTGTAGACTACTCAATGCCGATGGGTCGGGGGGGTGGGTAGGCATTGATCGCTCCTTCCGTACTATCCACAGGTCAACC
For the molecule B5, the binding result in data set [1] (label: 5' biotin) is listed as “no binding”; in data set [2] (label: 5' biotin) it was “binds”; in data set [3] it was “binds”.

B6: S1_C4 (ssDNA)
DNA: CCAGTGTAGACTACTCAATGCTACTGATTCATCTGCCGAATCCAAACCCGACCAGTCCACGGTACTATCCACAGGTCAACC
In the case of B6, the values for the binding result in data set [1] (label: 5' biotin), in data set [2] (label: 5' biotin) and in data set [3] were “no binding”, “binds” and “binds”, respectively.
Take TTGACCTCTGGATATGGGTGGGAGGGATGGGT (ssDNA) [S2_G1_F21]: the binding result in data set [4] is listed as “binds”.

B7: S1_C11 (ssDNA)
DNA: CCAGTGTAGACTACTCAATGCCGTGGACTGGTCGGGTTTGGATTCGGCAGATGAATCCAGTAGTACTATCCACAGGTCAACC
With B7, the results for the binding result in data set [1] (label: 5' biotin), in data set [2] (label: 5' biotin) and in data set [3] were “no binding”, “binds” and “binds”, respectively.

B8: S1_F11 (ssDNA)
DNA: CCAGTGTAGACTACTCAATGCGTGGGAAGGGTGGGCGGGAGCATTGATAACTTCGGAGGAGCGTACTATCCACAGGTCAACC
On to B8, for which the binding result in data set [1] (label: 5' biotin) is listed as “no binding”; in data set [2] (label: 5' biotin) it was “binds”; in data set [3], “binds”.

B9: S2_A2_F12 (ssDNA)
DNA: CCAGTGTAGACTACTCAATGCCGATGGGTCGGGGGGGTGGGTAGGCATTGATCGCTCCTTTCGT
In the case of B9, the binding result in data set [4] was “binds”.

B10: S1_C1-B (ssDNA)
DNA: CCAGTGTAGACTACTCAATGCCGCTTCTCGACCGCCCCTTGTTTTGGTTCTTTTGTCCGTAGTACTATCCACAGGTCAACC
Regarding B10, the binding result in data set [1] (label: 5' biotin) is listed as “no binding”; in data set [2] (label: 5' biotin) it was “binds”; in data set [3], “binds”.

B11: S1_C2 (ssDNA)
DNA: CCAGTGTAGACTACTCAATGCGGCTGTGTGACTTGACCTCTGGATATGGGTGGGAGGGATGGGTACTATCCACAGGTCAACC
In the case of B11, the binding result was “no binding” in data set [1] (label: 5' biotin), “binds” in data set [2] (label: 5' biotin) and “binds” in data set [3].

B12: S1_E2 (ssDNA)
DNA: B11 DNA with G23T, C24G, T27G, G28T, T29G, G30A, A31C, A59G, T60C
For B12, the binding result in data set [1] (label: 5' biotin) is “no binding”; in data set [2] (label: 5' biotin), “binds”; in data set [3], “binds”.

B13: S1_F2 (ssDNA)
DNA: CCAGTGTAGACTACTCAATGCTGCGTTGACTTGATCCTGTGGTATATGGGTGGGAGGGTCGGGTACTATCCACAGGTCAACC
In the case of B13, the values for the binding result in data set [1] (label: 5'-biotin), in data set [2] (label: 5'-biotin) and in data set [5] were “no binding”, “binds” and “binds”, respectively.

B14: S1_A8 (ssDNA)
DNA: B13 DNA with C24T
Take B14: the figures for the binding result in data set [1] (label: 5'-biotin), in data set [2] (label: 5'-biotin) and in data set [5] were “no binding”, “binds” and “binds”, respectively.

B15: S1_A6 (ssDNA)
DNA: CCAGTGTAGACTACTCAATGCTGTTATGACTTGACCTTGGGTTATGGGTTTGGGCGGGAGGGTACTATCCACAGGTCAACC
With B15, the figures for the binding result in data set [1] (label: 5'-biotin), in data set [2] (label: 5'-biotin) and in data set [5] were “no binding”, “binds” and “binds”, respectively.

B16: S1_E10 (ssDNA)
DNA: B15 DNA with T25G, A26T, G41A
Regarding B16, the figures for the binding result in data set [1] (label: 5' biotin), in data set [2] (label: 5' biotin) and in data set [3] were “no binding”, “binds” and “binds”, respectively.

B17: S1_C12 (ssDNA)
DNA: CCAGTGTAGACTACTCAATGCGTGGGAAGGGTGGGTGGGAGCATTGATAACTCGGAGGAGCGTACTATCCACAGGTCAACC
With B17, the binding result in data set [1] (label: 5' biotin) is given as “no binding”; in data set [2] (label: 5' biotin) it was “binds”; in data set [3], “binds”.

B18: S1_F12 (ssDNA)
DNA: B17 DNA with T32A, T36C
B18: the binding result in data set [1] (label: 5' biotin) is “no binding”; in data set [2] (label: 5' biotin) it was “binds”; in data set [3] it was “binds”.

B19: S1_F3-B (ssDNA)
DNA: B17 DNA with A28T
Turning to B19, the binding result in data set [1] (label: 5' biotin) is “no binding”; in data set [2] (label: 5' biotin) it was “binds”; in data set [3], “binds”.

B20: S1_B11-A (ssDNA)
DNA: CCAGTGTAGACTACTCAATGCGTGTGGTGACCTTGACCTTGGATTATGGGTTTGGGCGGGAGGGTACTATCCACAGGTCAACC
As for B20, the binding result in data set [1] (label: 5' biotin) is reported as “no binding”; in data set [2] (label: 5' biotin), “binds”; in data set [3], “binds”.

B21: S1_F5 (ssDNA)
DNA: B20 DNA with G29A, A61C
B21: the values for the binding result in data set [1] (label: 5' biotin), in data set [2] (label: 5' biotin) and in data set [3] were “no binding”, “binds” and “binds”, respectively.

B22: S2_B1_F12 (ssDNA)
DNA: CCAGTGTAGACTACTCAATGCCGTGGACTGGTCGGGTTTGGATTCGGCAGATGAATCAGTAGTA
In the case of B22, in data set [4], the binding result is recorded as “binds”.

B23: S1_D4 (ssDNA)
DNA: CCAGTGTAGACTACTCAATGCGGCTTCGGGAGGGGGGGCGGGTAAAAAGCCCATTGCCCTAGTACTATCCACAGGTCAACC
Turning to B23, the binding result in data set [1] (label: 5' biotin) is listed as “no binding”; in data set [2] (label: 5' biotin) it was “binds”; in data set [3], “binds”.

B24: S1_E9 (ssDNA)
DNA: B23 DNA with G29A, C50T
Consider B24, for which the binding result in data set [1] (label: 5' biotin) is listed as “no binding”; in data set [2] (label: 5' biotin) it was “binds”; in data set [3], “binds”.
